Data published in US20250243243A1, “DISRUPTION OF SONIC HEDGEHOG-SURF4 INTERACTION FOR CANCER TREATMENT” (The Hong Kong University of Science and Technology, priority 2022, published 2025).

Legend:
GST-SURF4^49-60 = target: T1, GST-SURF4^49-60 (Homo sapiens, UniProt O15260); test: Peptide binding assay: peptides immobilized on thiopyridone sepharose 6B beads, GST-SURF4^49-60 as prey, immunoblot; settings: pull down, immunoblotting with anti-GST antibodies
T1 construct: N-terminal GST-tagged SURF4^49-60; made in house; host or cells: E. coli
Protocol: (§1) Immunoprecipitation was performed as described (27). Purification of GST-tagged ShhN^25-49 and GST-tagged […] was performed as described previously (54). GST pull down assays were performed as described previously (54). Peptide binding assay was performed as described previously (27).
(§2) Peptide binding assay was performed as described previously (59). Synthetic CW peptides ([…]; SEQ ID NO: 6), CW^MT peptides ([…]; SEQ ID NO: 9), SURF4^49-61 peptides ([…]; SEQ ID NO: 10), SURF4^49-60 peptides ([…]; SEQ ID NO: 12), or RRFR peptides ([…]; SEQ ID NO: 11) were purchased from GenScript and coupled to thiopyridone-Sepharose 6B beads (Sigma-Aldrich) via the added C-terminal cysteine residue. For binding experiments, 2 ? g purified GST-tagged SURF4^49-60 or Shh^25-49-GST was preincubated at 4° C. for 30 min in a total volume of […] HK buffer. After incubation, […] buffer containing around 5 ? l beads containing 5 nmol of peptides was added to the reaction mixture for 1 h at 4° C. The beads were washed four times with […] of HK buffer and analyzed by immunoblotting.

GST = target: T2, GST (Schistosoma japonicum, UniProt P08515); test: Peptide binding assay: immobilized peptides, GST as prey, immunoblot; settings: pull down, GST control prey
T2 construct: made in house; host or cells: E. coli
Protocol: as §1, §2

Shh^25-49-GST = target: T3, Shh^25-49-GST (Mus musculus, UniProt Q62226); test: Peptide binding assay: immobilized SURF4 luminal peptides, Shh^25-49-GST as prey, immunoblot; parameters: species or system human; settings: pull down, immunoblotting with anti-GST antibodies
T3 construct: C-terminal GST-tagged Shh^25-49; made in house; host or cells: E. coli
Protocol: as §1, §2

[1] = target: T4, interaction between ShhN and SURF4 (Mus musculus, UniProt Q62226); test: GST pull down of SURF4-HA from HEK293T lysates by ShhN^25-49-GST in the presence of heparin; format: binding, human
T4 construct: Purified GST-tagged human ShhN^25-49 was incubated with lysates; made in house; host or cells: ShhN25-49-GST from E. coli; SURF4-HA in lysates of transfected HEK293T cells
Protocol: as §1
Purification of GST-tagged ShhN^25-49 and GST-tagged SURF4^49-60 was performed as described previously (58). GST pull down assays were carried out with 10 μl of compact GSH beads bearing around 5 ? g of GST-tagged ShhN^25-49. The beads were incubated with […] of 0.5 mg/ml of cell lysates from HEK293T cells transfected with HA-SURF4 in HKT buffer at pH 6.0 or 7.2 with mixing at 4° C. overnight. After incubation, the beads were washed three times with […] of HKT buffer and twice with […] of HK buffer, and the bound material was analyzed by immunoblotting.

T4 sequence (Q62226 25-49): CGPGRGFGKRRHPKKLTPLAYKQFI
T2 sequence (P08515 whole entry): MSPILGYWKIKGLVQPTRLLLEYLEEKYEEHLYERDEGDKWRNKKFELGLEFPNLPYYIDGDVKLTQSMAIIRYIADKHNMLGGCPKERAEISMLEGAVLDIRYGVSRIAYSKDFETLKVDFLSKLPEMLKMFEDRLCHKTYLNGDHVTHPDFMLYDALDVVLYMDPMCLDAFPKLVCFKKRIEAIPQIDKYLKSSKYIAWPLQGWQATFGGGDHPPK

CW(KR-AA) peptides: Alanine substituted mutant of the CW peptide, AAAHPAAC (SEQ ID NO: 9)
level of GST-SURF4^49-60 bound to immobilized peptides (GST-SURF4^49-60): bound more efficiently to the wild-type CW sequence than an alanine substituted mutant

SURF4 luminal peptides: First luminal loop of SURF4, SEQRDYIDTTWNC (SEQ ID NO: 10)
binding of GST to immobilized peptides (GST): not GST interacts
interaction of Shh^25-49-GST with immobilized SURF4 luminal peptides (Shh^25-49-GST): interacts

RRFR peptides: Peptides corresponding to the first intracellular loop of Frizzled6, VRRFRYPERPC (SEQ ID NO: 11)
level of GST-SURF4^49-60 bound to immobilized peptides (GST-SURF4^49-60): significantly lower than that bound to the CW peptides

heparin
inhibition of the interaction between ShhN and SURF4 ([1]; indicated concentrations of heparin): inhibited the interaction between ShhN and SURF4 in a concentration-dependent manner
inhibition of the ShhN-SURF4 interaction at pH 6.0 ([1]; pH 6.0): still inhibits the ShhN-SURF4 interaction
